According to patent US20250388682A1 (EPIBIOLOGICS, published 2025):

B1: EPI873 (hu15G11v5/Mav2) (bispecific antibody, human IgG1, kappa)
heavy: not shown
light: DIQMTQSPSSLSASVGDRVTITCRASDNLYSNLAWYQQKPGKSPKLLVYDATNLADGVPSRFSGSGSGTDYTLTISSLQPEDFATYYCQHFWGTPLTFGQGTKVEIKRTVAAPSVFIFPPSDEQLKSGTASVVCLLNNFYPREAKVQWKVDNALQSGNSQESVTEQDSKDSTYSLSSTLTLSKADYEKHKVYACEVTHQGLSSPVTKSFNRGEC
chain: not shown
B2: EPI1556-1 (hu15G11v5/EgB4) (bispecific antibody, human IgG1, kappa)
heavy: not shown
light: B1 light
chain: not shown
B3: EPI1022-1 (Duligotuzumab/Mav2) (bispecific antibody, human IgG1, kappa)
heavy: not shown
light: DIQMTQSPSSLSASVGDRVTITCRASQNIATDVAWYQQKPGKAPKLLIYSASFLYSGVPSRFSGSGSGTDFTLTISSLQPEDFATYYCQQSEPEPYTFGQGTKVEIKRTVAAPSVFIFPPSDEQLKSGTASVVCLLNNFYPREAKVQWKVDNALQSGNSQESVTEQDSKDSTYSLSSTLTLSKADYEKHKVYACEVTHQGLSSPVTKSFNRGEC
chain: not shown
B4: EPI1527-1 (Duligotuzumab/EgB4) (bispecific antibody, human IgG1, kappa)
heavy: not shown
light: B3 light
chain: not shown

Each binder was assayed against Epidermal Growth Factor Receptor (EGFR) (human, UniProt P00533 25-1210) (assay: cell-based or functional assay).

EGFR cell surface removal (percent; flow cytometry with a labeled anti-EGFR antibody after 24 hours at 50 nM) | Binder
76.4% | B1
69.2% | B2
75.1% | B3
78.6% | B4
